The record followed here is patent US20110105397A1, “METHOD FOR TREATING HEART FAILURE WITH STRESSCOPIN-LIKE PEPTIDES” (priority 2009, published 2011).

Where no end group is shown, it is not given here.

Assay [1] has as its target T1, human corticotrophin releasing hormone receptor type 2 (CRHR2) (human) (UniProt Q13324).
T1 sequence (looked up): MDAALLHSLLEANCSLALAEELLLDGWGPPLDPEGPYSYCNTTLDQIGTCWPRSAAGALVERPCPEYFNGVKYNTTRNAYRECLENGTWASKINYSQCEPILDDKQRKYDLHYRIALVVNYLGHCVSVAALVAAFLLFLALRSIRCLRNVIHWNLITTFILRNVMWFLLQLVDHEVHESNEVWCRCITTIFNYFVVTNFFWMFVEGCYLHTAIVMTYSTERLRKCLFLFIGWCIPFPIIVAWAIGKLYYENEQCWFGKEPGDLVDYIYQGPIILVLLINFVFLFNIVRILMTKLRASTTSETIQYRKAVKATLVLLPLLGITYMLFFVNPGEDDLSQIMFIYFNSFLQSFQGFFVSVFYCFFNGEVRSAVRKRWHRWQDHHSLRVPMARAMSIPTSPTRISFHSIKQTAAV
In words: cell-based or functional assay.

In assay [2] the target is T2, human corticotrophin releasing hormone receptor type 1 (CRHR1) (human, UniProt P34998 24-415).
T2 construct: whole, on cells; cAMP assay on whole cells; radioligand assay on cell membranes; also called h-CRHR1; CRH receptor type 1
T2 sequence (looked up): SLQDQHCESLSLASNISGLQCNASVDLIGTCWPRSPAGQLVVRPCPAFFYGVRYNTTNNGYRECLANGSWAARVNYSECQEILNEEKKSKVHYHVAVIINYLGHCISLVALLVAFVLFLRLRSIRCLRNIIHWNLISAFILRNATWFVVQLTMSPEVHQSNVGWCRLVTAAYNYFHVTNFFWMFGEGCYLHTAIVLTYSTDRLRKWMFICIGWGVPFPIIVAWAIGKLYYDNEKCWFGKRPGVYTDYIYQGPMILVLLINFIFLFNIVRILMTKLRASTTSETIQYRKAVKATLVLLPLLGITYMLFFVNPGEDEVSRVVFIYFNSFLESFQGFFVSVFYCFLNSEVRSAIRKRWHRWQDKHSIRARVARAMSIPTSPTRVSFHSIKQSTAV
As to the kind of experiment: radioligand competition against [125I]-(Tyr0)-sauvagine, CRHR1 assay, cell membranes. Here is the method: Frozen cell pellets were defrosted on ice in 15 ml of assay buffer that was composed of 10 mM HEPES, 130 mM NaCl, 4.7 mM KCl, 5 mM MgCl₂, and 0.089 mM bacitracin at pH 7.2 and 21±3° Celsius. The solution was then homogenized with a Polytron tissue grinder at a setting of 10 and 7×3 s (Brinkmann Instruments, Westbury, N.Y.). The homogenate was centrifuged at 4° Celsius at 800×g for 5 min with the pellet being discarded. The supernatant was re-centrifuged at 26,892×g for 25 min at 4° Celsius with the final pellet being re-suspended in assay buffer. All binding assays were conducted in 96-well Multiscreen GF/B filter plates (Millipore, Billericay, Mass., U.S.A.) that were pre-soaked in assay buffer with 0.3% PEI for 1 hour. […]
The bound radioactivity was separated by filtration using a Multiscreen Resist manifold (Millipore Corp., Billerica, Mass., U.S.A). The filters were washed three times with ice-cold PBS at pH 7.5 and radioactivity retained on the filters was quantified by its liquid scintillation measured by a TopCount counter (Packard BioScience, Boston, Mass., U.S.A). […]
Data from individual competition curves were expressed as the percentage of specific [¹²⁵I]-anti-sauvagine-30 or)[¹²⁵I]-(Tyr⁰-sauvagine binding (B) within each experiment.
On the technique in general: Displacement assays read how much labelled ligand stays bound in the presence of the test substance.

Assay [3] has as its target T1, human corticotrophin releasing hormone receptor type 2 (CRHR2) (human). As to the kind of experiment: radioligand competition against [125I]-anti-sauvagine-30, membranes of SK-N-MC cells with human CRHR2.

B1: anti-sauvagine-30 (peptide)
peptide: FHLLRKMIEIEKQEKEKQQAANNRLLLDTI-NH2
notes: also called SV30; AS-30
Consider B1, for which the pA2 (antagonism of the cAMP response to h-SCP) in assay [1] is 7.82 -log10(M). The pKI in assay [2] is 5.81 -log10(M); in assay [3], 7.78 -log10(M).
